We go through three molecules from patent US11814440B2, “Glypican 2 as a cancer marker and therapeutic target” (THE CHILDREN'S HOSPITAL OF PHILADELPHIA, priority 2015, dated 2023).

One assay concerns the target T1, GPC2 (Homo sapiens, UniProt Q8N158).
T1 sequence (Q8N158 24-554): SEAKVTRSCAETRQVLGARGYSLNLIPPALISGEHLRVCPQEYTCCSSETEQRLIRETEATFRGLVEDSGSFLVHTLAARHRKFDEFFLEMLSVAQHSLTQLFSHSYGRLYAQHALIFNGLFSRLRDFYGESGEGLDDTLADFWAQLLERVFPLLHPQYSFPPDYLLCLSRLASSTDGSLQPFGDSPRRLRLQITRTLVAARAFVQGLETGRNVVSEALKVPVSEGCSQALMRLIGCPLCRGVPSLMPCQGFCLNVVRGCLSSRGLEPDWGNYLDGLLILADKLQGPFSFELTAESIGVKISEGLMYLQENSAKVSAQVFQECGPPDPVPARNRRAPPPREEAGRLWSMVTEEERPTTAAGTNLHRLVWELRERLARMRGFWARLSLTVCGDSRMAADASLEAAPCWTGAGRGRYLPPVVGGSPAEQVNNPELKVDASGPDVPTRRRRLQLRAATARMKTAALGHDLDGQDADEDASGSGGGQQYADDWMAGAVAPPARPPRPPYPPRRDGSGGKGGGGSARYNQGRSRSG
Briefly: In vitro characterization of GPC2 antibodies. The following applies: for use in CAR-T, ADC and bispecific antibody development.

Assay [1] addresses T2, cancer cell-associated GPC2 (Homo sapiens, UniProt Q8N158).
T2 sequence (Q8N158 24-554): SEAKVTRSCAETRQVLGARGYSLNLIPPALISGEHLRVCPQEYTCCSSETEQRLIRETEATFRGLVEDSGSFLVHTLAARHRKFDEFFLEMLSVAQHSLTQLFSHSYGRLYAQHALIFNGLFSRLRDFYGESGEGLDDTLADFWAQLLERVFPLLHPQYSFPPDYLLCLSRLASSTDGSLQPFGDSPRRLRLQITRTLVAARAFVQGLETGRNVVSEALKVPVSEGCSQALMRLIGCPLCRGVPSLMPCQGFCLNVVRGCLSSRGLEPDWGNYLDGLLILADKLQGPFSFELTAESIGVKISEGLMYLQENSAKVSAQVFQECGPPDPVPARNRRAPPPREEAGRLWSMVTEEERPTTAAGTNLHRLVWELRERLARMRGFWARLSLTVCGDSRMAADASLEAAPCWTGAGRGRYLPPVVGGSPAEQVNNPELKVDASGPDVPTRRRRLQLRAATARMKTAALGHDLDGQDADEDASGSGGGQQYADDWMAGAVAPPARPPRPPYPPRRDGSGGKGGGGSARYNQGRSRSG
Briefly: Targeting of GPC2 by phage display derived human antibodies. It counts as binding. The following applies: isolated from phage display antibody library, affinity matured.

B1: m203 (antibody, V domains shown)
VH: EVQLVQSGGGLVQPGGSLRLSCAASGFTFSSYAMSWVRQAPGKGLEWVSAISGSGGSTYYADSVKGRFTISRDNSKNTLSLQMDSLRPEDTAVYYCAKSRDSGNYLDAFDFWGQGTMVTVSS
VL: DIQLTQSPSTLSASVGDRVTITCRASQSISSWLAWYQQKAGKAPRLLIYDASTLESGVPSRFSGTGSGTYFTLTISSLQPEDFATYYCQQFNSFPLTFGGGTKVEIKR
In the case of B1, the “therapeutic activity in in vitro characterization” value (shortened to “therapeutic activity”) with GPC2 is given as “promising therapeutic activity”. Besides, the “specific targeting of cancer cell-associated GPC2” value in assay [1] is on record as “specifically targeting cancer cell-associated GPC2”.

B2: m201 (antibody, V domains shown)
VH: EVQLVETGGGVVKPGGSLRLSCAASGFTFSDYYMSWIRQAPGKGLEWVSYISSSGSTIYYADSVKGRFTISRDNSKNTLYLQMNSLRAEDTAVYYCARESGYDYVFDYWGQGTLVAVSS
VL: DIQMTQSPSTLSAFVGDRVTITCRASQSISSWLAWYQQKPGKAPKLLIYAASTLQSGVPSRFSGSGSGTEFTLTISSLQPEDFATYYCQQLNSYPITFGQGTRLEIKR
Take B2: the “therapeutic activity” value with GPC2 is listed as “promising therapeutic activity”.

B3: m202 (antibody, V domains shown)
VH: QVQLVQSGGGLIQPGGSLRLSCAASGFTVSSNYMSWVRQAPGKGLEWVSVIYSGGSTYYADSVKGRFTISRDNSKNTLYLQMNSLRAEDTAVYYCARDSNAFDIWGQGTMVTVSS
VL: EIVLTQSPLSLPVTPGEPASISCRSSQSLLYSNGYNYLDWYLQKPGKSPQVLIYLGSNRASGVPDRFSGSGSGTDFTLKISRVEAEDVGVYYCMQALQTPITFGQGTRLEIKR
For B3, the “therapeutic activity” value in the assay with GPC2 is “promising therapeutic activity”. Further, the “specific targeting of cancer cell-associated GPC2” value in assay [1] is given as “specifically targeting cancer cell-associated GPC2”.
